From the nanobody polyreactivity screen of Harvey et al. (2022)

Experiment: yeast display, Sf9 membrane polyspecificity reagent, FACS + sequencing; frameworks hold sequencing errors
Outline: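 Nanobodies from a synthetic yeast display library (Saccharomyces cerevisiae BJ5465), induced 36–48 hours with galactose, were stained 1 hour at 4 °C with 10% biotinylated, detergent-solubilized Sf9 membrane reagent, enriched on streptavidin microbeads, then FACS-sorted. Anti-HA (expression) and streptavidin (reagent binding) fluorescence set low and high (top ~1%) gates. Polyreactivity labels come from the gate of origin. Genes were colony-PCR amplified, MiSeq 2 × 250 sequenced and filtered by CDR length.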

Sequence	polyreactivity (PSR sort gate)
QVQLVESGGGLVQAGGSLRLSCAASGSILNNYAMGWYRQAPGKERELVAAISSSGGTNYADSVKGRFKISRDNAKNTVYLQMNSLKPEDTAVYYCAKESLYQYDYWGQGTQVTVSS	low polyreactivity
QVQLVESGGGLVQAGGSLRLSCAASGSILPGNAMGWSRQAPGKERELVAAITYSGGSTYADSVKGRFTISRDNAKNTVYLQINSLKPEDTAVYYCNADFIDPSVYDYNYWGQGTQVTVSS	low polyreactivity
QVQLVESGGGLVQAGGSLRLSCAASGSILQRNAMGWYRQAPGKERELVAAISWSGDNTYYADSVKGRFTISRDNAKNTVYLQMNSLKPEDTAVYYCATDADIYFQEYDYWGQGTQVTVSS	low polyreactivity
QVQLVESGGGLVQAGGSLRLSCAASGSILQSYAMGWSRQAPGKERELGAALSGSGGSTYYADSVKGRFTISRDNAKNTVYLQMNSLKPEDTAVYYCAKGPLYRTSRGEFGYWGQGTQVTVSS	low polyreactivity
QVQLVESGGGLVQAGGSLRLSCAASGSILQSYAMGWYRQAPGKERELVAAITYRGGRTYYADSVKGRFTISRDNAKNTVYLQMNSLKPEDTAVYYCAADQQRSIDAPYGYWGQGTQVTVSS	low polyreactivity
QVQLVESGGGLVQAGGSLRLSCAASGSILRLYAMGWYRQAPGKERELVAAISSGGSTYYADSVKGRFPISRDNAKNTVYLQMNSLKPEDTAVYYCAAGVFWSWRYAYDYWGKGTQVTVSS	low polyreactivity
QVQLVESGGGLVQAGGSLRLSCAASGSILRQYAMGWYRQAPGKERELVATISRSGGSKYYADSVKGRFTISRDNAKNTVYLQMNSLKPEDTAVYYCAASRYNKSYREWWVGSWGQGTQVTVSS	high polyreactivity
QVQLVESGGGLVQAGGSLRLSCAASGSILRSYAMGWYRQAPGKERELVAVINGSGGRTYYADSVKGRFTISRDNAKNTVYLQMNSLKPEDTAVYYCNKRYRFTGIRDPFDYWGQGTQVTVSS	low polyreactivity
QVQLVESGGGLVQAGGSLRLSCAASGSILRSYAMGWYRQAPWKERELVAVINGSGGRTYYADSVKGRFTISRDIAKNTVYLQMNSLKPEDTAVYYCNADPGGRYPRRGYAHEGDYWGQGTQVTVSS	low polyreactivity
QVQLVESGGGLVQAGGSLRLSCAASGSILRVNAMGWYRQAPGKEREVVAAISSGGITNYADSVKGALHNFTRQCEEYRLFTDEQPETGTYRGQFCARTYRNPASAGSLVVRYPYDYWGQGTQVTVTS	low polyreactivity
QVQLVESGGGLVQAGGSLRLSCAASGSILRYYAMGWYRQAPGKERELVADISTSGGSTYYADSVKGRFTISRDNAKNTFDLQMISLKPEDTAVYYCASAYYRYLIYIGKFDYWGQGTQVTVSS	high polyreactivity
QVQLVESGGGLVQAGGSLRLSCAASGSILSGYAMGWYRQAPGTERELVAAINDGGGTNYADSVKGRFTISRDNAKNTVYLQMKSLKPEDTAVYYCAAEQSVSFLVFTGVKFDYWGQGTQVTVSS	low polyreactivity
QVQLVESGGGLVQAGGSLRLSCAASGSILSLNGMGWYRQAPGKERELVAVIRSGGSTYYADSVKGRFTISRDNAKNTVYLQMNSLKPEDTAVYYCNAQDYLTTVPDPEYDYWGQGTQVTVSS	low polyreactivity
QVQLVESGGGLVQAGGSLRLSCAASGSILSRYAMGWYRQAPGKERELVATITRRGGSTFYADSVKGRFTISRDNAKNTVYLQMNSLKPEDTAVYYCAVGRLFWGQGTQVTVSS	low polyreactivity
QVQLVESGGGLVQAGGSLRLSCAASGSILSTYSMGCYRQAPGKERELVASISSNAGSTYYADSVKGRFTISRDNAKNTVYLQMNSLKPEDTAVYYCNKVYGGGTYDYWGQGTQVTVSS	low polyreactivity
QVQLVESGGGLVQAGGSLRLSCAASGSILTINAMGWYRQAPGKERELVARITISSGSTYYADSVKGRFTISRDNAKNTVYLQMNSLKPEDTAVYYCATDGRSNYYWGDYWGQGTQVTVSS	low polyreactivity
QVQLVESGGGLVQAGGSLRLSCAASGSILTRNAMGWYRQAPGKERELVAAISGGGGRTYYADSVKGRFTISRDNAKNTVYLQMNSLKPEDTAVYYCAADDGYSSNEYDYWGQGTQVTVSS	low polyreactivity
QVQLVESGGGLVQAGGSLRLSCAASGSILTRNAMGWYRQAPGKERELVAAISYSGVRTYYADSVKGRFTISRDNAKNTVYLQMNSLKPEDTAVYYCNAVISSRYDYWGQGTQVTVSS	high polyreactivity
QVQLVESGGGLVQAGGSLRLSCAASGSILTVYAMGWYRQAPGKERELVARIRSGDRTYYADSVKGRFTISRDNAKNTVYLQMNSLKPEDTAVYYCAAGSQRRYYHTNWDSFNYWGQGSQVTVSS	low polyreactivity
QVQLVESGGGLVQAGGSLRLSCAASGSILVANGMGWYRKAPGKERELVAGITTRGGNTYYADSVKGRFTISRDNAKNTVYLQMNSLKPEDTAVYYCATDLIGVWYWYEYWGQGTQVTVSS	low polyreactivity
QVQLVESGGGLVQAGGSLRLSCAASGSILVGNPMGWYRQAPGTERELVAAISKSGSSTHYADSVKGRFTISRDNAKNTFYLQMNSLKPEDTAVYYCNAVGRVYRAKYDYWGQGTQVTVSS	high polyreactivity
QVQLVESGGGLVQAGGSLRLSCAASGSILVNMGWSRQAPAKERELVAAIRYGGGRTYYADSVKGRFTISRDNAKNTVYLQMNSLKPEDTEVYYCAKKYIWVWAPAKQYGFDSWGQGTQVTVSS	low polyreactivity

Sequence	polyreactivity (PSR sort gate)
QVQLVESGGGLVQAGGSLRLSCAASGSILVPNAMGWYRQAPRKERELVAGISANGGSTYYADSVKGRFTISRDNAKNTVYFQMNSLKPEDTAVYDCNARLYWDWYGDDYWGQGTQVTVSS	low polyreactivity
QVQLVESGGGLVQAGGSLRLSCAASGSILVPYTMGWYRQAPGKERELVASISYSGGTTYYADSVKGRFTISRDNAKNTVYLQMNSLKPEDTAVYYCAADWDESYSYRRYRHYNYWGQGTQVTVSS	low polyreactivity
QVQLVESGGGLVQAGGSLRLSCAASGSILWENAMGWYRQAPGKERELVATISVSGGGTYYADSVKGRFTISRDNAKNTVYLQMNSLKPEDTAVYYCNARYGNESQGWEDYWGQGTQVTVSS	low polyreactivity
QVQLVESGGGLVQAGGSLRLSCAASGSILWHYAMGWYRQAPGKERELVAAISGSGRTNYADSVKGRFTISRDNAKNTVYLQMNSLKPEDTAVYYCARVHGTSESKYYYWGQGTQVTVSL	low polyreactivity
QVQLVESGGGLVQAGGSLRLSCAASGSILWLYVMGWYRQAPGKERELVATITSSGGSTYYADSVKGRFTISRDNAKNSVYLQMNSLKPEDTAVYYCAADYSRDEYDYWGQGTQVTVSS	low polyreactivity
QVQLVESGGGLVQAGGSLRLSCAASGSILWSYAMGWYRQAPGKERELVAAIRSGGSTYYADSVKGRFTISRDNAKNTVYLQMNSLKPEDTAVYYCNATYAPLFEYDYWGQGTQVTVSS	low polyreactivity
QVQLVESGGGLVQAGGSLRLSCAASGSILYPYAMGWYRQAPGKERELVAAISSDGSTYYADSVKGRFTISRDNAKNTVYLQMNSLKPEDTAVYYCNADIGPRYDYWGQGTQVTVSS	high polyreactivity
QVQLVESGGGLVQAGGSLRLSCAASGSILYTYAMGWYRQAPGKERELVAAISRGGGSTYYADSVKGRFTISRDNAKNTVYLQMNSLKPEDTAVYYCAARKLTRGTGRDDEYWGQGTQVTVSS	high polyreactivity
QVQLVESGGGLVQAGGSLRLSCAASGSILYVYAMGWYRQAPGKERELVAAISFSGGSTYYADSVKGRFTISRDNAKNTVYLQMNSLKPEDTAVYYCAADVSYDIYVEYDYWGQGTQVTVSS	low polyreactivity
QVQLVESGGGLVQAGGSLRLSCAASGSILYWYAMGWYRQAPGKERELVAGIDWSGGSTYYADSVKGRFTISRDNAKNTVYLQMNSLKPEDTAVYYCNAVQNRGRGSHRGESTYYYWGQGTQVTVSS	low polyreactivity
QVQLVESGGGLVQAGGSLRLSCAASGSILYYNAMGWYRQAPGKEREFVAAISDSGSSTYYADSVKGRFTITRDNAKNTVYLQMNSLKPEDTAVYYCNTEIYVDIISDYGYWGQGTQVTVSS	low polyreactivity
QVQLVESGGGLVQAGGSLRLSCAASGSILYYYAMGWYRQAPGKERELVAAISSGGSTYYADSVKGRFTISRDNAKNTVYLQMNSLKPEDTAVYYCAARRDNPWAKAPRYKMYYWGQGTQVTVSS	high polyreactivity
QVQLVESGGGLVQAGGSLRLSCAASGSIMSYYAMGWYRQAPGQVREFVAAISSGGGTYYADSVKGRFTISRDNAKNTVYLQMNSLNAEDTAVFYCNADHASSIQFEYWGQGTQVTVSS	low polyreactivity
QVQLVESGGGLVQAGGSLRLSCAASGSIQTLYAMGWYRQAPGKERELVAAITSGDRTNYADSVKGRFTISRDNAKNTVYLQMNSLKPEDTAVYYCATKRWWGRYDYWGQGTQVTVSS	high polyreactivity
QVQLVESGGGLVQAGGSLRLSCAASGSIRRYAMGWYRQAPGKERELVAAISGSGVSTYYADSVKGRFTISRDNAKNTVYLQMNSLKPEDTAVYYCAAAAIYFRYDYWGQGTQVTVSS	high polyreactivity
QVQLVESGGGLVQAGGSLRLSCAASGSISAAYAMGWYRQAPGKERELVADISSSGVSTYYADSVKGRFTISRDNAKNTVYLQMNSLKQEDTAVYYCAKNRVAGYRKYDYWGQGTQVTVSS	low polyreactivity
QVQLVESGGGLVQAGGSLRLSCAASGSISAQNAMGRYRQAPGKERELVATINSGGRTNYADSVKGRFTISRDNAKNTVYLQMNSLNPEDTAVYYCNTVVRGAYTYGDVSKYDYWGQGNQVTVSS	low polyreactivity
QVQLVESGGGLVQAGGSLRLSCAASGSISDVYAMGWYRQAPGKERELVAAYADSVKGRFTISRDNAKNTVYLQMNCLKPVDTAVYYCNFVETSQELGWQAFDYWGQGTQVTVSS	low polyreactivity
QVQLVESGGGLVQAGGSLRLSCAASGSISFSNAMGWYRQAPGKERELVASITSGGSTKYADSVKGRFTISRDNAKNTVYLQMNSLKPEDTAVYYCAADGYDYWGQGTQVTVSS	low polyreactivity
QVQLVESGGGLVQAGGSLRLSCAASGSISGGYAMGWYRQAPGKERELVAVIDSGGSTYYADSVKGRFTISRDNAKNTVYLQMNSLKPEDTAVYYCNADYSSQDNFDYWGQGTQVTVSS	low polyreactivity
QVQLVESGGGLVQAGGSLRLSCAASGSISGRNTMGWYRQAPGKERELVAAISWSGGSTYYADSVKGRFTISRDNAKNTVYLQMNSLKPEDTAVYYCAARNWRGVGGGVGRYGYWGQGTQVTVSS	high polyreactivity
